From article PMC7340788, “Structure of the yeast Swi/Snf complex in a nucleosome free state” (Nature Communications, 2020) come the findings set out here.

As a reminder, the stoichiometry N is the number of molecules, sites or subunits per partner or assembly.

T1: Swi1 (S. cerevisiae, UniProt P09547 1-1314)
T1 construct: Swi1, subunit of the S. cerevisiae Swi/Snf complex; endogenous protein; Only part of the chain is modelled (C-terminus with seven ARM repeats, α1, β1); For cryo-EM the complex was cross-linked with 1 mM BS3; source: endogenous, S. cerevisiae; purified as part of the Swi/Snf complex through Snf6-3Flag (ANTI-FLAG M2 resin, Superose 6)
T1 sequence (looked up): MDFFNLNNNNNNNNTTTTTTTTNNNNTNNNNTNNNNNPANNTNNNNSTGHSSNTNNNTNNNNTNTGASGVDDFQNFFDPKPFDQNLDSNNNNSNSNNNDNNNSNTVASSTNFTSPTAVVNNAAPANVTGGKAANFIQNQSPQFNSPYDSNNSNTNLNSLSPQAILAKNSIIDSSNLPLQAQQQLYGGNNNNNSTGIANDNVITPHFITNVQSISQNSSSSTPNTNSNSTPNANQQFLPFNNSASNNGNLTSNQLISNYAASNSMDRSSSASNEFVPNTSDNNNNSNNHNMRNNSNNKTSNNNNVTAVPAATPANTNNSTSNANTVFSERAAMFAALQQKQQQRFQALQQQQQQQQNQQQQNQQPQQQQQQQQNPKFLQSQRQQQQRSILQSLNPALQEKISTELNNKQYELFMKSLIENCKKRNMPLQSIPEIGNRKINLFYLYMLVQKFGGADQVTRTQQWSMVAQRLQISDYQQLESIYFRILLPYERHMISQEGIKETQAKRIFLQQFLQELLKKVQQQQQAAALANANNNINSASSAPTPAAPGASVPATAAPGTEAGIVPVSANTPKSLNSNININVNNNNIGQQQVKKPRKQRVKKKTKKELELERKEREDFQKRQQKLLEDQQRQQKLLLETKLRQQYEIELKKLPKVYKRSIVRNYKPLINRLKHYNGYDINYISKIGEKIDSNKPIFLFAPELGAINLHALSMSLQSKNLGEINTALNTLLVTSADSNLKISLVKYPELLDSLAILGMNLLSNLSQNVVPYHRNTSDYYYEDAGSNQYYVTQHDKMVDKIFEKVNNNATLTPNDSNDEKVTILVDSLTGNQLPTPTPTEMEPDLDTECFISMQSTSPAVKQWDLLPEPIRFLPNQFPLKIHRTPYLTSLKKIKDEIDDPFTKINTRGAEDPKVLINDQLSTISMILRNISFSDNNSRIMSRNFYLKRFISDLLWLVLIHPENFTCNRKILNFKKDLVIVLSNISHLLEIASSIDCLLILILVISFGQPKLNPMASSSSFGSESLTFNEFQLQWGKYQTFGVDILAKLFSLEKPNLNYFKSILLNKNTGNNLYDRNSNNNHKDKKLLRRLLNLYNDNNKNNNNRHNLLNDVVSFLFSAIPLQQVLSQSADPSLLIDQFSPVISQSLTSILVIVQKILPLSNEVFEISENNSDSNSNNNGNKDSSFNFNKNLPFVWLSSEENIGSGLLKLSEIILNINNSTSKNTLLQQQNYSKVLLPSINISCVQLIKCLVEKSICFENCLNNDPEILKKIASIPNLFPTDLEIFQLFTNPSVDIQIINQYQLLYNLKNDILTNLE

B1: Swp82 (natural protein, S. cerevisiae, UniProt P43554 1-623, looked up)
chain: MLGEDEGNTVLEKGNNPSVKQGEVGAVFIVPKILIREHERVILKQILQILDQDELVQPPLDKFPYKKLELPKYIDELKTRDATNTSYKMIQLDAYGEKKVGSNGELFGGRHYLFNTFTFTAHMGVLLVLLQDVIKVLYQSNATHDEDEFIVQHDQILVMETSEEQTKFLAKNGVIPEESKGSFKYITARSAFVEFGASVIAGGQRIVDDYWESLAKKQNLSSHQRVFKLSTNLISKISLLRPSFQNNRISNANEISANTNNTCTISTSKFESQYPIVTEQPSAEIREAYIENFAKGEHISAIVPGQSISGTLELSAQFRVPRYHSKNSFQQALQMKAMDIPIGRHEELLAQYESQAPDGSASISLPNHIPSVNPSNKPIKRMLSSILDINVSSSKNKKSEENEMIKPMNKGQHKNNTSLNINGWKFESLPLKSAENSGKQQYYRGLPLYEKNTLLERLKQLTPNEIKELEHLHDAVFVNTGLQNVRKVRTKKWKKYWQYKAGIPIGLKRSQLDEFKNKYLKDVLAQTSVTTNFNEITNTDETITTKRVPNPNFLGNCNIKDFKPPYIYSHVNKVPQNVAGDKTAVKLDTEVKNTNANPVVATDPVAAKPDNLANFSNEVAMNN
notes: Swp82, subunit of the S. cerevisiae Swi/Snf complex; endogenous protein; For cryo-EM the complex was cross-linked with 1 mM BS3; source: endogenous, S. cerevisiae; purified as part of the Swi/Snf complex through Snf6-3Flag (ANTI-FLAG M2 resin, Superose 6)
B2: Swi3 (natural protein, S. cerevisiae, UniProt P32591 1-825, looked up)
chain: MENTLGEGSTVNASVDVDQHGNDNNSDSNANAAVAGVANTDTAGEESQQQDESLKDEATVPNTRDAESEAITVTAKQQPTMQANKLDSQETPSTEESRAQNVFGQDNEDSDNLFGETESSVSNNEANTPSIPTNPVDNENNKPAIKEDSTIQDSNGDVKNMEDVKIQKEEEPENNTVIEGVKEESQPDENTKEMDEVEEDDEDDDQPMISPDNSIFGDTKSESKQLGNTSSVANTPSEIPDAHKAEQEDIIEKTESVDKKVDSGEERNEQEREIMNDHSKSANPKKTTITRVEPETFEIPQAHEIVIPSYSKWFNLEKIHSIEVQSLPEFFTNRIPSKTPEVYMRYRNFMVNSYRLNPNEYFSVTTARRNVSGDAAALFRLHKFLTKWGLINYQVDSKLLPKNIEPPLTSQYSTRHDAPRGLFPFESYKPSVQLPDMAKLKKMMNTSDSESTLYKYLKESKRKYDEITHPPSTTDDENGDKNDNGGKMNNEVSTSTSMTGDANLLEEGETSRPLKKVKILEQIDENWSKEDLQKLLKGIQEFGADWYKVAKNVGNKSPEQCILRFLQLPIEDKFLYGDGNGKGDNDNGLGPLKYAPHLPFSKSENPVLSTIAFLVGLVNPKTVQSMTQRAIQSAESIKSQKEEISDQKPIEHIKEGSEIAISSLGYRSHIFATNEERQMNFLTNELIRLQMEKLDAKLNHLKKLEKFMELERKTLERQQENLLIQRLNFNQNSSKIVNVLSKCLNLISDSNINNSSVAEKEEIRSQIDHFKSMLSKPETLSIGKNPFNKPNIETGENHNGQSISNENDVKPISIEAPQFYRYWSA
notes: Swi3, subunit of the S. cerevisiae Swi/Snf complex; endogenous protein; two copies (chains A and B) in the model; also called Swi3A; Swi3B; source: endogenous, S. cerevisiae; purified as part of the Swi/Snf complex through Snf6-3Flag (ANTI-FLAG M2 resin, Superose 6)

Holding throughout (assay): cryo-EM structure; endogenous Swi/Snf complex purified as a whole through Snf6-3Flag, nucleosome-free, cross-linked with 1 mM BS3, 20 mM HEPES pH 7.4, 350 mM NaCl; 4.1 Å average, 2.9 Å for the base module
The target in series [1] is B2. The following applies: both partners purified.
Series [2] addresses T2, Snf5 (S. cerevisiae, UniProt P18480 1-905).
T2 construct: Snf5, subunit of the S. cerevisiae Swi/Snf complex; endogenous protein; For cryo-EM the complex was cross-linked with 1 mM BS3; source: endogenous, S. cerevisiae; purified as part of the Swi/Snf complex through Snf6-3Flag (ANTI-FLAG M2 resin, Superose 6)
Particulars: both partners purified.

Series [3] concerns the target T3, Snf2 (S. cerevisiae, UniProt P22082 1-1703).
T3 construct: Snf2, ATPase-containing subunit of the S. cerevisiae Swi/Snf complex; endogenous protein; Only the preHSA domain and the HSA helix are seen in the map; the ATPase domain is absent from the structure; For cryo-EM the complex was cross-linked with 1 mM BS3; source: endogenous, S. cerevisiae; purified as part of the Swi/Snf complex through Snf6-3Flag (ANTI-FLAG M2 resin, Superose 6)
Particulars: both partners purified.

For series [4], the target named is T1, Swi1. Particulars: both partners purified.
Series [5] deals with the molecule itself.

T2 sequence (P18480 whole entry): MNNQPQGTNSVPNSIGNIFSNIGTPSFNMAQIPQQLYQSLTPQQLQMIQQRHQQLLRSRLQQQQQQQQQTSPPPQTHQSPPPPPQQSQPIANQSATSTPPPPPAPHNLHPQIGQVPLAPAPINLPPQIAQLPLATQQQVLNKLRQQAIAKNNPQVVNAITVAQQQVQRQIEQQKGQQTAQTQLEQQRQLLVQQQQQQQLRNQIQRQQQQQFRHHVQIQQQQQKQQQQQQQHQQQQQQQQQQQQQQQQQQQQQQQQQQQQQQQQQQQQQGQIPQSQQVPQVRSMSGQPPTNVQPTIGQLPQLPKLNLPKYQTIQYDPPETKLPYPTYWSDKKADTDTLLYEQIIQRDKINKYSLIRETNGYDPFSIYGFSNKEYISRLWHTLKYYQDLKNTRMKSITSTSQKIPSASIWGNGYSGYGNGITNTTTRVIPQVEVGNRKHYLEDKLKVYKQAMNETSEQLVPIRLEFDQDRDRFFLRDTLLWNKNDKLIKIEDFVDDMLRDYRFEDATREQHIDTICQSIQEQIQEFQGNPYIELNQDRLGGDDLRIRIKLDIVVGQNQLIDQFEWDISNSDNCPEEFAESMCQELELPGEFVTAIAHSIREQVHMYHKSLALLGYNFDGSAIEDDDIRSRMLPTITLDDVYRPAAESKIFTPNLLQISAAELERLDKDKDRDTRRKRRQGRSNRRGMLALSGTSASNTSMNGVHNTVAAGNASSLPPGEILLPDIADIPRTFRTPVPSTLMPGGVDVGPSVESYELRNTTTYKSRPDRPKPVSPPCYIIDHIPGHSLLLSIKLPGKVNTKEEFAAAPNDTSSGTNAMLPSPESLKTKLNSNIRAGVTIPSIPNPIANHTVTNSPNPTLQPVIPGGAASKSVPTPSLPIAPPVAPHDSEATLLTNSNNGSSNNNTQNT
T3 sequence (P22082 whole entry, the tested form may be a part): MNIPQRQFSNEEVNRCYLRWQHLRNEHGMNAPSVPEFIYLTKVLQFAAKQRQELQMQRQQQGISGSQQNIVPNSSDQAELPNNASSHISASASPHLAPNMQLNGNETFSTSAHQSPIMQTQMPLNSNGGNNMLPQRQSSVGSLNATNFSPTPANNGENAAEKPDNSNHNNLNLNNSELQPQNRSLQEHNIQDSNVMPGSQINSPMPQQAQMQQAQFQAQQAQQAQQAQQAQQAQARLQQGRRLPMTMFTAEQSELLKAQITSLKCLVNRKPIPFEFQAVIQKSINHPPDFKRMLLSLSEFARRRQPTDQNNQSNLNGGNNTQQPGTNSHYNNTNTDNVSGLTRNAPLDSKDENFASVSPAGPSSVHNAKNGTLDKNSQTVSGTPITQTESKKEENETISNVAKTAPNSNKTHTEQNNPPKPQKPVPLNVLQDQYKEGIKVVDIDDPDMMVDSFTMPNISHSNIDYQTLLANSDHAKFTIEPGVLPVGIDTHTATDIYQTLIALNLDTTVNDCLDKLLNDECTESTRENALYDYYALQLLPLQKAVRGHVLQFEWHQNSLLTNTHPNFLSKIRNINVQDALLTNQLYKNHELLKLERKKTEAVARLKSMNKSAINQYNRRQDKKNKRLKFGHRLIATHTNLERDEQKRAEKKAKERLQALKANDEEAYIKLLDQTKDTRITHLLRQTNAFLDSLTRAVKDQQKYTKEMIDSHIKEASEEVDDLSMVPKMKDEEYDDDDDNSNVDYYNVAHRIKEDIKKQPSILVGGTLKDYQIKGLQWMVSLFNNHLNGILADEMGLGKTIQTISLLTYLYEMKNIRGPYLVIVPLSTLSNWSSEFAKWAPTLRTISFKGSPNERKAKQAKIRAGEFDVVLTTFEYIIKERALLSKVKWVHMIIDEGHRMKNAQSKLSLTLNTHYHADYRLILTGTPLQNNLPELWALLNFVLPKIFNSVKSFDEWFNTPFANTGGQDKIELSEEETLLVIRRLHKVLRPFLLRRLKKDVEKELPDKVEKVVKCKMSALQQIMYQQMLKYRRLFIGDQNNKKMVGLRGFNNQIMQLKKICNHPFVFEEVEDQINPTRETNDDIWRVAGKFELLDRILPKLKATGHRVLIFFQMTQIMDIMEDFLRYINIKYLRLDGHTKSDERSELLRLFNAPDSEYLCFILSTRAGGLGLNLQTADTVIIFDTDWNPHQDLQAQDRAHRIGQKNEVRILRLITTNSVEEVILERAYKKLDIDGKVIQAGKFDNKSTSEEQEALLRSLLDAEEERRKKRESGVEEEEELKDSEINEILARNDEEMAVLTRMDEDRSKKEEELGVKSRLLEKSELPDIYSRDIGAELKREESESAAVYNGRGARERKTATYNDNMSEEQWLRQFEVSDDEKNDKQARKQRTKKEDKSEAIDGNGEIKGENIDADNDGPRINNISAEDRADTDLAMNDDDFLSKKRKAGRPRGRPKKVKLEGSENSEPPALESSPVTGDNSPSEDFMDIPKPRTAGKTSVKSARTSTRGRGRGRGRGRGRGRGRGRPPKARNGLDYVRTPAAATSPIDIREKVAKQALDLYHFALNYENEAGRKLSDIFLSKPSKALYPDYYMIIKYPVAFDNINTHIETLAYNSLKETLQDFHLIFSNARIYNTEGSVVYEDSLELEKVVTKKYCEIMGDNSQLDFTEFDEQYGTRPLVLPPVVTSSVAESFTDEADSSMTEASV

With B1, the binding result in series [1], in series [2] and in series [3] was “binds” each time.

For B2, the binding result in series [4], in series [2] and in series [3] was “binds” throughout. The “stoichiometry N” value in series [5] is 2.
